The target of one data set is smURFP H61R. Nature of the data set: native gel or EMSA; NativePAGE 4-16% Bis-Tris gel, 0.27 μg purified protein per lane, without and with 100 mM DTT; Coomassie stain and far-red fluorescence; homodimeric smURFP used as a size reference. (Mobility shift assays separate free from complexed probe on a gel.)
Data set [1] deals with the molecule itself. In words: crystal structure; apo-smURFP crystallised from smURFP with 20% BV attached; hanging drop, 20 °C, 4 M Na nitrate + 0.1 M NaOAc (pH 4.6); 2.8 Å, space group C222(1), six protomers (three homodimers) in the asymmetric unit.
Data set [2] concerns the molecule itself. In words: cell-based or functional assay.

Where “and” joins values, the source holds several entries; their conditions need not be identical. Equal entries are not always repeated.

As to smURFP H61R, the stoichiometry N with smURFP H61R is 2 and > 2.
Take CytERM-mGFP: in the data set with CytERM-mGFP, the OSER assay in HEK293A cells expressing CytERM-mGFP: ratio of the MFI of the OSER structure to the MFI of the nuclear envelope, after 24 and 48 h was under 2.3.

B1: small Ultra-Red Fluorescent Protein (smURFP) (other)
chain: MKTSEQRVNIATLLTENKKKIVDKASQDLWRRHPDLIAPGGIAFSQRDRALCLRDYGWFLHLITFCLLAGDKGPIESIGLISIREMYNSLGVPVPAMMESIRCLKEASLSLLDEEDANETAPYFDYIIKAMS
modifications: biliverdin (BV) covalently attached to C52 in part of the protein (20% BV with high expression); the crystal holds apo-smURFP
As for B1, the “stoichiometry N” value in data set [1] came out at 2. Besides, the “OSER assay in HEK293A cells expressing CytERM-smURFP: ratio of the MFI of the OSER structure to the MFI of the nuclear envelope, after 24 h (4.8) and 48 h (3.7)” value in data set [2] is 4.8.

The stoichiometry N is the number of molecules, sites or subunits per partner or assembly.

The values are drawn from PMC10338489, “Structural and photophysical characterization of the small ultra-red fluorescent protein” (Nature Communications, 2023).
